This is an account of results in paper PMC6506218.

This test addresses full-length AgrC-I Q305A in lipid nanodiscs (S. aureus). Briefly: fluorescence polarisation.

By Kd is commonly meant the equilibrium constant for the complex coming apart. Read a low Kd as higher affinity. In the case of AIP-I (peptide), the equilibrium dissociation constant (Kd) was determined as 56 nM.
To AIP-II (peptide) belongs 151 nM.
